Measured values taken from patent US20130295118A1 (CELLERANT THERAPEUTICS, published 2013).

How the values were obtained:
[1] = target: T1, biotinylated CLL-1 (hCLL-1) (human, UniProt Q5QGZ9 65-265, limits assumed, biotinylated (site not stated)); experiment: biotinylated CLL-1 on streptavidin sensor tips; antibody at 10, 30, 90 ug/ml; global 1:1 fit
T1 sequence: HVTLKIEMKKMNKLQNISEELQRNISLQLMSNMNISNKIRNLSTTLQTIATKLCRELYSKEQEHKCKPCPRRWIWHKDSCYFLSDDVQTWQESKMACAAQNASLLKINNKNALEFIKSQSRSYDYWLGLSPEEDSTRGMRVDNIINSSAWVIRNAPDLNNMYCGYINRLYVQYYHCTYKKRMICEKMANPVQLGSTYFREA

[2] = target: T2, C lectin domain of CLL-1 expressed in 293T cells (human, UniProt Q5QGZ9 140-249); experiment: binding to 293T cells expressing the C lectin domain of CLL-1
T2 sequence: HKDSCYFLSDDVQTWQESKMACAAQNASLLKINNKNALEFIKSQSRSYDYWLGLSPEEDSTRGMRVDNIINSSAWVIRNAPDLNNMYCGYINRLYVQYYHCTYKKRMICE

[3] = target: T3, human C type Lectin Like molecule 1 (CLL-1) on cells (human, UniProt Q5QGZ9 1-265); experiment: cell-based or functional assay
T3 sequence: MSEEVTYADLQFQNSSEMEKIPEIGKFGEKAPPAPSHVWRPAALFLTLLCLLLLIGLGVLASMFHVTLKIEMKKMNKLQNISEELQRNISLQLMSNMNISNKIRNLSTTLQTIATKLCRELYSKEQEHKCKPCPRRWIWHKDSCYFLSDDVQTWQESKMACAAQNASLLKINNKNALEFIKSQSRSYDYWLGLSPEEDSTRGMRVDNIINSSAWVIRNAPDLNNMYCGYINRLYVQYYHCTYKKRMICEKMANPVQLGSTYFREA

[4] = target: T3, human C type Lectin Like molecule 1 …; experiment: FACS, recombinant 293 cells expressing human CLL-1
[5] = target: T3, human C type Lectin Like molecule 1 …; experiment: FACS, OCI AML-5 AML cell line
[6] = target: T3, human C type Lectin Like molecule 1 …; experiment: FACS, HL60 AML cell line
[7] = target: T3, human C type Lectin Like molecule 1 …; experiment: FACS, primary AML patient cells, Group 1
[8] = target: T3, human C type Lectin Like molecule 1 …; experiment: cell-based or functional assay; remark: listed apart in the source
[9] = target: T3, human C type Lectin Like molecule 1 …; experiment: cell-based or functional assay; remark: listed apart in the source

B1: CLL-1 antibody clone M26 (antibody, V domains shown)
VH: EVQLQQSGPELVKPGASVKMSCKASGYTFTSYFIHWVKQKPGQGLEWIGFINPYNDGSKYNEKFKGKATLTSDKSSSTAYMELSSLTSEDSAVYYCTRDDGYYGYAMDYWGQGTSVTVSS
VL: DIQMTQSPSSLSASLGERVSLTCRATQELSGYLSWLQQKPDGTIKRLIYAASTLDSGVPKRFSGNRSGSDYSLTISSLESEDFADYYCLQYAIYPYTFGGGTKLEIKR
notes: Conjugated to saporin in the ADC assays
Q: How did the Kd [1] turn out when B1 was run?
A: 0.214 nM

Q: Does B1 bind [2]?
A: no binding

Q: What about the “ADC EC50 (pM), saporin-conjugated antibody, cell viability” value (shortened to “ADC EC50 (pM)”) [3] of the same binder?
A: 90.2 pM

B2: CLL-1 antibody clone M2 (antibody, IgG1, V domains shown)
VH: EVQLRQSGPELVKPGASVKMSCKASGYTFTSYFMHWVKQKPGQGLEWIGFINPYNDGTKYNEKFKGKATLTSDKSSSTAYMELNSLTSEDSAVYYCTRDDGYYDYAMDYWGQGTSVTVSS
VL: DIQMTQSPSSLSASLGERVSLTCRASQEISVYLSWLQQKPDGTIKRLIYAASTLDSGVPERFSGSRSGSDYSLTISSLESEDFADYYCLQYASYPYTFGGGTKLEIKR
Q: Which “% of live cells with antibody binding” value [4] does the source give for B2 here?
A: 99.9%

Q: And the “% of live cells with antibody binding” value [5]?
A: 96.3%

Q: What about the “% of live cells with antibody binding” value [6] of the same binder?
A: 90.3%

Q: And the “positive patient samples / total tested” value [7]?
A: 2 of 2 patient samples

Q: And the Kd [1]?
A: 0.205 nM

Q: And the “ADC EC50 (pM)” value [3]?
A: 20.9 pM

B3: CLL-1 antibody clone G12 (antibody, IgG1, V domains shown)
VH: QVQLQQPGAELVKPGASMKMSCKASGYTFPSSNIHWLKQTPGQGLEWIGVIYPGNGDTSYNQKFKDKATLTTDKSSSTAYMQLSSLTSEDSAIYFCARVYNWHFDVWGAGTTVTVSS
VL: NIVLTQSPASLAVSLGQRATISCRASESVDGYGDIFMLWYQQKPGQPPKLLIYFASNLESGVPARFSGSGSRTDFTLTIDPVEADDAATYYCQQNNEDPYTFGGGTKLEIKR
Q: B3 was tested. Which “% of live cells with antibody binding” value [4] did it give?
A: 99.9%

Q: What about the “% of live cells with antibody binding” value [6] of the same binder?
A: 88.3%

Q: What about the “positive patient samples / total tested” value [7] of the same binder?
A: 2 of 2 patient samples

Q: What about the Kd [1] of the same binder?
A: 0.07 nM

Q: What about the “ADC EC50 (pM)” value [3] of the same binder?
A: 19.4 pM

B4: CLL-1 antibody clone M31 (antibody, IgG2a, V domains shown)
VH: EVQLQQSGPELVKPGASVKMSCKASGYTFTSYVMHWVKQKPGQGLEWIGYINPYNDGTKYNEKFKGKATLTSDTSSSTAYMELNSLTSEDSAVYFCARPIYFDNDYFDYWGQGTTLKVSS
VL: TIVLTQSPASLAVSLGQRATISCRASESVDSYGNSFMHWYQQKPGQPPKLLIYLASNLESGVPARFSGSGSRTDFTLTIDPVEADDAATYYCQQNNYDPWTFGGGTKLEIK
Q: Which results are given for B4?
A: % of live cells with antibody binding [4]: 76%; CDC (% killing), 10 ug/mL antibody, primary AML cells [8]: 12.1%; % of live cells with antibody binding [5]: 89.7%; % of live cells with antibody binding [6]: 91%; Kd [1]: 0.611 nM; binding result [2]: no binding; ADC EC50 (pM), saporin-conjugated antibody, cell viability [3]: 34.3 pM

B5: CLL-1 antibody clone M5 (antibody, IgG2a, V domains shown)
VH: EVQLQQSGAELVRPGASVKLSCTASGFNIKDDYIHWVKQRPEQGLEWIGWIDPEKGDTAYASKFQDKATITSDTSSNTAYLQLSSLTSEDTAVYYCTLTGRFDYWGQGTTLTVSS
VL: DIVMSQSPSSLAVSVGEKVTMSCKSSQSLLYSSNQKNNLAWYQQKPGQSPKLLIYWASTRESGVPDRFTGSGSGTDFTLTISSVQAEDLAVYYCQQYYSYRTFGGGTKLEIK
Q: Which “% of live cells with antibody binding” value [4] does the source give for B5 here?
A: 1.1%

Q: And the “CDC (% killing), 10 ug/mL antibody, primary AML cells” value [8]?
A: 17.9%

Q: And the “% of live cells with antibody binding” value [5]?
A: 2.3%

Q: And the “% of live cells with antibody binding” value [6]?
A: 1.7%

Q: What about the Kd [1] of the same binder?
A: 0.553 nM

Q: What about the “ADC EC50 (pM)” value [3] of the same binder?
A: 150 pM

B6: CLL-1 antibody clone M22 (antibody, IgG2a, V domains shown)
VH: QVQLQQPGAELVKPGASVKLSCKASGYTFTRYWMHWVKQRPGQGLEWIGNIDPSDTETHYNQQFKDKATLTVDKSSSTAYMQLSSLTSEDSAVYYCAIYYGNPSYYAMDYWGQGTSVTVSS
VL: DIVMTQSPSSLTVTAGEKVTMSCKSSQNLLNSGNQKKYLNWYQQKPGQPPKLLIYWASTRESGVPDRFTGSGSGTDFTLTISSVQAEDLAVYFCQNDYSYPFTFGAGTKLELK
Q: With B6 as the binder, how does the “% of live cells with antibody binding” value [4] read?
A: 97%

Q: And the “CDC (% killing), 10 ug/mL antibody, primary AML cells” value [8]?
A: 14.5%

Q: And the “% of live cells with antibody binding” value [5]?
A: 57.6%

Q: And the “% of live cells with antibody binding” value [6]?
A: 37.2%

Q: What about the Kd [1] of the same binder?
A: 0.388 nM

B7: CLL-1 antibody clone G4 (antibody, IgG1, V domains shown)
VH: EVQLQQSGPELVKPGASMKISCKASGYSFTGYTMNWVKQSHEKNLEWIGPINPYNDGTIYNPNFKGKATLTVDKASSTAYMELLSLTSDDPAVYYCARTDDYDDYTMDYWGQGTSVTVSS
VL: EIQMTQTPSSLSASLGDRVTISCRASHDISNYLNWYQQKPDGTLKLLIYYTSRLHSGVPSRFSGSGSGTDYSLTISNLEQEDIATYFCQQGKTLLWTFGGGTKLEIK
notes: also called 31.G4; 31G4
Q: What does the source list for B7?
A: % of live cells with antibody binding [5]: 83.2%; % of live cells with antibody binding [6]: 83.2%; positive patient samples / total tested [7]: 2 of 2 patient samples; Kd [1]: 0.053 nM; ADC EC50 (pM), saporin-conjugated antibody, cell viability [3]: 44.4 pM

B8: human chimeric CLL-1 antibody ChiM26 (antibody, V domains shown)
VH: EVQLQQSGPELVKPGASVKMSCKASGYTFTSYFIHWVKQKPGQGLEWIGFINPYNDGSKYNEKFKGKATLTSDKSSSTAYMELSSLTSEDSAVYYCTRDDGYYGYAMDYWGQGTSVTVSS
VL: DIQMTQSPSSLSASLGERVSLTCRATQELSGYLSWLQQKPDGTIKRLIYAASTLDSGVPKRFSGNRSGSDYSLTISSLESEDFADYYCLQYAIYPYTFGGGTKLEIKR
Q: How did the “ADCC EC50 (Promega ADCC Reporter Assay)” value [9] turn out when B8 was run?
A: 79 ng/mL

B9: human chimeric CLL-1 antibody ChiM31 (antibody, V domains shown)
VH: EVQLQQSGPELVKPGASVKMSCKASGYTFTSYVMHWVKQKPGQGLEWIGYINPYNDGTKYNEKFKGKATLTSDTSSSTAYMELNSLTSEDSAVYFCARPIYFDNDYFDYWGQGTTLKVSS
VL: TIVLTQSPASLAVSLGQRATISCRASESVDSYGNSFMHWYQQKPGQPPKLLIYLASNLESGVPARFSGSGSRTDFTLTIDPVEADDAATYYCQQNNYDPWTFGGGTKLEIK
Q: How did the “ADCC EC50 (Promega ADCC Reporter Assay)” value [9] turn out when B9 was run?
A: 143 ng/mL

B10: human chimeric CLL-1 antibody ChiG4 (antibody, V domains shown)
VH: EVQLQQSGPELVKPGASMKISCKASGYSFTGYTMNWVKQSHEKNLEWIGPINPYNDGTIYNPNFKGKATLTVDKASSTAYMELLSLTSDDPAVYYCARTDDYDDYTMDYWGQGTSVTVSS
VL: EIQMTQTPSSLSASLGDRVTISCRASHDISNYLNWYQQKPDGTLKLLIYYTSRLHSGVPSRFSGSGSGTDYSLTISNLEQEDIATYFCQQGKTLLWTFGGGTKLEIK
Q: How did the “ADCC EC50 (Promega ADCC Reporter Assay)” value [9] turn out when B10 was run?
A: 105 ng/mL

B11: CLL-1 antibody clone M29 (antibody, IgG1, V domains shown)
VH: EVQLQQSGPELVKPGASVKMSCKASGYIFTSYVMYWVKQKPGQGLEWIGYINPYNDGTKYNEKFKGKATLTSDKSSSTAYMELSSLTSEDSAVYYCARYYDYDYYFDYWGQGTTLTVSS
VL: DIQMTQSPSSLSASLGGKVTITCKASQDINKYIAWYQHKPGKGPRLLIHYTSTLQPGIPSRFSGSGSGRDYSFSISNLEPEDIATYYCLQYDYLWTFGGGTKLEIK
Q: Which results are given for B11?
A: % of live cells with antibody binding [4]: 99.9%; % of live cells with antibody binding [5]: 87.6%; % of live cells with antibody binding [6]: 84.6%; Kd [1]: 1.48 nM; ADC EC50 (pM), saporin-conjugated antibody, cell viability [3]: 91.4 pM
